Reference: patent publication US20260116987A1 (Gilead, published 2026)

Assays:
[1] = molecular target: T1, Human CCR8 (C-C chemokine receptor type 8) expressed on CHO-S cells (human, UniProt P51685 1-355); assay: flow cytometry epitope binning, tandem format, human CCR8-overexpressing cells; competitor 19-O07
T1 construct: also called huCCR8; human CCR8-expressing CHO-S cells
Description: (§1) A subset of antibodies against human CCR8 were epitope binned using flow cytometry method in tandem format. Briefly, one set of antibodies was biotinylated. Human CCR8-overexpressing cells were incubated at 4° C., with the non-biotinylated antibodies at 10 μg/mL for 1 hour, then without washing the biotinylated antibodies were added at 10 μg/mL. After a further 1-hour incubation, cells were washed three times and then stained with streptavidin-phycoerythrin (PE-strep) secondary antibody for 30 minutes. Binding competition was determined by detecting PE by flow cytometry. The response values were normalized as the % of the maximum binding of the individual antibody.

[2] = molecular target: T2, Human CCR8 on human CCR8-overexpression lipoparticles (human, UniProt P51685 1-355); assay: sequential format ELISA on human CCR8-overexpression lipoparticles; competitor 6-B09
[3] = molecular target: T2, Human CCR8 on human CCR8-overexpression …; assay: sequential format ELISA on human CCR8-overexpression lipoparticles; competitor 19-O07
[4] = molecular target: T1, Human CCR8 (C-C chemokine receptor type …); assay: flow cytometry epitope binning, tandem format, human CCR8-overexpressing cells; competitor 1-K17
Description: as §1

[5] = molecular target: T1, Human CCR8 (C-C chemokine receptor type …); assay: cell-based or functional assay
[6] = molecular target: T3, Human CCR4 expressed on CHO-S cells (human, UniProt P51679 1-360); assay: flow cytometry
T3 construct: whole, on cells; also called CCR4-expressing CHO-S cells
T3 sequence (looked up): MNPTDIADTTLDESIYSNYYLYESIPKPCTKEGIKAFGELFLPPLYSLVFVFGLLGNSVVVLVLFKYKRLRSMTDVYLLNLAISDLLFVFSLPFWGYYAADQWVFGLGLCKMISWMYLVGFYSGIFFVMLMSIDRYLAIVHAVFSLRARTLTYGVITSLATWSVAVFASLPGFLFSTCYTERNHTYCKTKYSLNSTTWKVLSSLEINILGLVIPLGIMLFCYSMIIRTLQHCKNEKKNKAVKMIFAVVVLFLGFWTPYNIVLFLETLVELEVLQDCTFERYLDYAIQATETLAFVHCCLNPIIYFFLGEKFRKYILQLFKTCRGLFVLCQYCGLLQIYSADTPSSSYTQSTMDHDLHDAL

[7] = molecular target: T1, Human CCR8 (C-C chemokine receptor type …); assay: flow cytometry epitope binning, tandem format, human CCR8-overexpressing cells; competitor 7-B16
Description: as §1

[8] = molecular target: T2, Human CCR8 on human CCR8-overexpression …; assay: sequential format ELISA on human CCR8-overexpression lipoparticles; competitor 1-K16
[9] = molecular target: T1, Human CCR8 (C-C chemokine receptor type …); assay: flow cytometry epitope binning, tandem format, human CCR8-overexpressing cells; competitor 6-B09
Description: as §1

[10] = molecular target: T1, Human CCR8 (C-C chemokine receptor type …); assay: flow cytometry epitope binning, tandem format, human CCR8-overexpressing cells; competitor 1-K16
Description: as §1

[11] = molecular target: T2, Human CCR8 on human CCR8-overexpression …; assay: sequential format ELISA on human CCR8-overexpression lipoparticles; competitor 7-B16
[12] = molecular target: T2, Human CCR8 on human CCR8-overexpression …; assay: sequential format ELISA on human CCR8-overexpression lipoparticles; competitor 1-K17
[13] = molecular target: T3, Human CCR4 expressed on CHO-S cells; assay: flow cytometry (PE-A), human CCR4-expressing CHO-S cells against parental CHO-S cells; antibody concentration not given
[14] = molecular target: T1, Human CCR8 (C-C chemokine receptor type …); assay: flow cytometry on CHO cells expressing CCR8, EC50 column
Description: CCR8 binding was determined using flow cytometry according to the same methods used in Example 4, Briefly, antibodies were screened for specific binding to human CCR8 by flow cytometry using human CCR8-overexpressing and parental CHO—S cell line. Antibodies specifically binding to human CCR8 were also tested for binding to CCR4 by flow cytometry.

[15] = molecular target: T1, Human CCR8 (C-C chemokine receptor type …); assay: cell-based or functional assay; remark: listed apart in the source

T1 sequence (P51685 whole entry): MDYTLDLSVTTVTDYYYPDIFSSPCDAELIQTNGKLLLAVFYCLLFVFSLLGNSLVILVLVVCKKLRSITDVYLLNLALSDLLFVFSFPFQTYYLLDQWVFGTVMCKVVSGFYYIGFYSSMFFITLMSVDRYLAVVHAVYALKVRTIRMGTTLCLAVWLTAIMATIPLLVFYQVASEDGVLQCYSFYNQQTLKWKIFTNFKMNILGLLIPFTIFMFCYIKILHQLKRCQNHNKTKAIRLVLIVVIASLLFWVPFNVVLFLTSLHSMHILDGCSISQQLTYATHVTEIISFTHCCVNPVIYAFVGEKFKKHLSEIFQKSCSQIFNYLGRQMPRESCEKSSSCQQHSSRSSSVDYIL
T2 sequence (P51685 whole entry): as above

Row | Binder | % of the maximum binding [1] [%] | ELISA epitope binning signal [2] | ELISA epitope binning signal [3] | % of the maximum binding [4] [%] | IC50, antagonist activity in DiscoverX PathHunter beta-arrestin assay with 13.7 nM human CCL1 [5] [µg/mL] | binding result [6] | % of the maximum binding [7] [%] | ELISA epitope binning signal [8] | % of the maximum binding [9] [%] | % of the maximum binding [10] [%] | ELISA epitope binning signal [11] | ELISA epitope binning signal [12] | binding result [13] | binding result [14] | EC50 of ADCC function (Promega ADCC reporter bioassay) [15] [µg/mL]
1 | 19-O07 chimera (human IgG1) (antibody, also called 19-007; 19-O07 chimeric antibody) heavy: not shown light: DVVMTQTPLTLSVTIGQPASISCKSSQSLLYSNGKTYLNWLLQRPGQSPKRLIYLVSKLDSGVPDRFTGSGSGTDFTLKISRVEAEDLGVYYCVQGTRFPWTFGGGTNLEIKRTVAAPSVFIFPPSDEQLKSGTASVVCLLNNFYPREAKVQWKVDNALQSGNSQESVTEQDSKDSTYSLSSTLTLSKADYEKHKVYACEVTHQGLSSPVTKSFNRGEC | 54 | 0.679 | 0.817 | 91 | 995 | no binding | 108 | 0.882 | 39 | 109 | 1.02 | 0.784 | – | – | –
2 | 1-K17 (mouse hybridoma antibody) (antibody, mouse IgG1, kappa) heavy: QVQLQQPGAELVKPGASVKMSCKASGYTFTSYNMHWVKQTPGQGLEWIGAIYPGNGDTSYNQKFKGKATLTADKSSSTAYMHLSSLTSEDSAVYYCARKGGTPFAYWGQGTLLTVSAAKTTPPSVYPLAPGSAAQTNSMVTLGCLVKGYFPEPVTVTWNSGSLSSGVHTFPAVLESDLYTLSSSVTVPSSPRPSETVTCNVAHPASSTKVDKKIVPRDCGCKPCICTVPEVSSVFIFPPKPKDVLTITLTPKVTCVVVDISKDDPEVQFSWFVDDVEVHTAQTQPREEQFNSTFRSVSELPIMHQDWLNGKEFKCRVNSAAFPAPIEKTISKTKGRPKAPQVYTIPPPKEQMAKDKVSLTCMITDFFPEDITVEWQWNGQPAENYKNTQPIMNTNGSYFVYSKLNVQKSNWEAGNTFTCSVLHEGLHNHHTEKSLSHSPG light: DVVMTQTPLSLPVSLGDQASISCRSSQSLVHSNGNTYLYWYLQKPGQSPKLLIYKVSNRFSGVPDRFSGSGSGTDFTLKISRVEAEDLGVYFCSQSTHVPYTFGGGTKLEIKRADAAPTVSIFPPSSEQLTSGGASVVCFLNNFYPKDINVKWKIDGSERQNGVLNSWTDQDSKDSTYSMSSTLTLTKDEYERHNSYTCEATHKTSTSPIVKSFNRNEC | – | – | – | – | – | – | – | – | – | – | – | – | no binding | – | –
3 | 7B16-H1.001 (CDR H1 swapped mutant of 7-B16) (antibody, V domains shown, also called CDR swapped variant H1) VH: EVQLVESGGGLVQPKGSLKLSCAASGFTFSGSAMHWVRQAPGKGLEWVARIRSKSNNYATYYADSVKDRFTISRDDSQSMLYLQMNNLKTEDTAMYYCVRGLLRYRFFDVWGAGTTVTVSS VL: DIVMTQAEPSVPVTPGESISISCRSSKSLLHSNGNTYLYWFLQRPGQSPQLLIYRMSNLASGVPDRFSGSGSGTAFTLRISRVEAEDVGVYYCMQHLEYPFTFGGGTKLEIKR | – | – | – | – | – | – | – | – | – | – | – | – | – | no binding | –
4 | 1-K16 chimera (human IgG1) (antibody, also called 1-K16 chimeric antibody) heavy: not shown light: DIVMTQAAPSVPVTPGESVSISCRSSKSLLHSNGNTYLYWFLQRPGQSPQLLIYRMSNLASGVPDRFSGSGSGTAFTLRISRVEAEDVGVYYCMQHLEYPFTFGAGTKLELKRTVAAPSVFIFPPSDEQLKSGTASVVCLLNNFYPREAKVQWKVDNALQSGNSQESVTEQDSKDSTYSLSSTLTLSKADYEKHKVYACEVTHQGLSSPVTKSFNRGEC | 149 | 0.964 | 1.49 | 32 | 4.55 | no binding | 88 | 0.264 | 167 | 31 | 0.758 | 0.794 | – | – | –
5 | 13-E16 chimera (human IgG1) (antibody, also called 13-E16 chimeric antibody) heavy: not shown light: QIVLTQSPAIMSASPGEKVTITCSASSSVSYMHWFQQKPGTSPKLWIYSTSNLASGVPARFSGSGSGTSYFLTISRMEAEDAATYYCQQRSSYPYTFGGGTKLERKRTVAAPSVFIFPPSDEQLKSGTASVVCLLNNFYPREAKVQWKVDNALQSGNSQESVTEQDSKDSTYSLSSTLTLSKADYEKHKVYACEVTHQGLSSPVTKSFNRGEC | – | – | – | – | 12.6 | no binding | – | – | – | – | – | – | – | – | 0.0549
6 | 6-B09 chimera (human IgG1) (antibody, also called 6-B09 chimeric antibody) heavy: not shown light: QIVLTQSPAIMSASPGEKVTITCSASSSVIYMHWFQQKPGTSPKLWIYATSNLASGVPARFSGSGSGTSYSLTISRMEAEDAATYYCQQRSSYPLTFGAGTKLELKRTVAAPSVFIFPPSDEQLKSGTASVVCLLNNFYPREAKVQWKVDNALQSGNSQESVTEQDSKDSTYSLSSTLTLSKADYEKHKVYACEVTHQGLSSPVTKSFNRGEC | 32 | 0.512 | 0.577 | 94 | – | no binding | 89 | 0.8 | 44 | 102 | 0.776 | 0.82 | – | – | –
7 | 6-B09 (mouse hybridoma antibody) (antibody, mouse IgG2a, kappa) heavy: QVQLKESGPGLVAPSQSLSITCTVSGFSLARYDISWIRQPPGKGLEWLGVIWTGGGTNYNSAFMSRLSISKDNSKSQVFLKMNGLQTDDTAIYYCVSIRYDETYWGQGTLVTVSAAKTTAPSVYPLAPVCGDTTGSSVTLGCLVKGYFPEPVTLTWNSGSLSSGVHTFPAVLQSDLYTLSSSVTVTSSTWPSQSITCNVAHPASSTKVDKKIEPRGPTIKPCPPCKCPAPNLLGGPSVFIFPPKIKDVLMISLSPIVTCVVVDVSEDDPDVQISWFVNNVEVHTAQTQTHREDYNSTLRVVSALPIQHQDWMSGKEFKCKVNNKDLPAPIERTISKPKGSVRAPQVYVLPPPEEEMTKKQVTLTCMVTDFMPEDIYVEWTNNGKTELNYKNTEPVLDSDGSYFMYSKLRVEKKNWVERNSYSCSVVHEGLHNHHTTKSFSRTPG light: QIVLTQSPAIMSASPGEKVTITCSASSSVIYMHWFQQKPGTSPKLWIYATSNLASGVPARFSGSGSGTSYSLTISRMEAEDAATYYCQQRSSYPLTFGAGTKLELKRADAAPTVSIFPPSSEQLTSGGASVVCFLNNFYPKDINVKWKIDGSERQNGVLNSWTDQDSKDSTYSMSSTLTLTKDEYERHNSYTCEATHKTSTSPIVKSFNRNEC | – | – | – | – | – | – | – | – | – | – | – | – | no binding | – | –
8 | 13-E16 (mouse hybridoma antibody) (antibody, mouse IgG2a, kappa) heavy: EVQLVETGGGLVQPKGSLKLSCAASGFTFSTNAMNWVRQAPGKGLEWIARIRSKSNNYATHYADSVKDRFTISRDDSQSILHLQMNNLKNEDTAMYYCVRDSHYYVSTYVGLAWFAYWGQGTLVTVSAAKTTAPSVYPLAPVCGDTTGSSVTLGCLVKGYFPEPVTLTWNSGSLSSGVHTFPAVLQSDLYTLSSSVTVTSSTWPSQSITCNVAHPASSTKVDKKIEPRGPTIKPCPPCKCPAPNLLGGPSVFIFPPKIKDVLMISLSPIVTCVVVDVSEDDPDVQISWFVNNVEVHTAQTQTHREDYNSTLRVVSALPIQHQDWMSGKEFKCKVNNKDLPAPIERTISKPKGSVRAPQVYVLPPPEEEMTKKQVTLTCMVTDFMPEDIYVEWTNNGKTELNYKNTEPVLDSDGSYFMYSKLRVEKKNWVERNSYSCSVVHEGLHNHHTTKSFSRTPG light: QIVLTQSPAIMSASPGEKVTITCSASSSVSYMHWFQQKPGTSPKLWIYSTSNLASGVPARFSGSGSGTSYFLTISRMEAEDAATYYCQQRSSYPYTFGGGTKLERKRADAAPTVSIFPPSSEQLTSGGASVVCFLNNFYPKDINVKWKIDGSERQNGVLNSWTDQDSKDSTYSMSSTLTLTKDEYERHNSYTCEATHKTSTSPIVKSFNRNEC | – | – | – | – | – | – | – | – | – | – | – | – | no binding | – | –
